Data set [1] deals with CEM cell surface receptor bound by sgc8 (protein not named in document) (Homo sapiens). Nature of the data set: flow. Conditions: whole CEM cells.
Data set [2] relates to Ramos cell surface (protein target not named in document) (Homo sapiens). The settings on record: 3' biotin, Ramos cell capture efficiency in microfluidic device.

Read-outs that look alike come from different tables or passages of the source.

The Kd is the constant that tells how readily two partners part at equilibrium. As for “ATCTAACTGCTGCGCCGCCGGGAAAATACTGTACGGTTAGATTTTTTTTTT [sgc8]”, the dissociation constant Kd in data set [1] (3' T10 linker as printed in Table 1, 3' biotin for capture, FITC instead of biotin for flow) stood at 3.9 nM.

Consider “AACACCGTGGAGGATAGTTCGGTGGCTGTTCAGGGTCTCCTCCCGGTGTTTTTTTTTT [TD05]”, for which the activity in data set [2] (3' T10 linker, aptamer alone) was 41 % capture.

In the case of “AACACCGTGGAGGATAGTTCGGTGGCTGTTCAGGGTCTCCTCCCGGTG [AuNP-TD05]”, the activity in data set [2] (5' thiol-(PEG)24 on gold nanoparticle) came out at 90 % capture. Turning to “ATCTAACTGCTGCGCCGCCGGGAAAATACTGTACGGTTAGA [AuNP-sgc8]”, the Kd in data set [1] (5' thiol-(PEG)24 on 13.6 nm gold nanoparticle, about 95 aptamers per particle, 3' biotin or FITC, multivalent gold nanoparticle conjugate) stood at 0.1 nM.

These data come from patent US20160091489.
